kcat data for three proteins are collected here from patent US20160108381A1, “DNA POLYMERASES AND MUTANTS THEREOF” (LIFE TECHNOLOGIES CORPORATION, priority 2001, published 2016).

What all share (test): Steady-state kinetics, DNA- and RNA-dependent polymerase activity
Substrate in data set [1]: Cc1cn([C@H]2C[C@H](O)[C@@H](COP(=O)(O)OP(=O)(O)OP(=O)(O)O)O2)c(=O)[nH]c1=O
It is filed as biochemical, Dictyoglomus thermophilum strain Rt46B.1. The note with it: 72 °C. The method, then: (§1) Purification of CA2, B.EA1, Rt41A, Dth, Tok13B, Tok7B, and Rt69B DNA polymerase. E. coli cells (BL21SI, Invitrogen Corporation, Carlsbad, Calif.) bearing the plasmid pET26B with the gene for CA2, B.EA1, Rt41A, or Dth DNA polymerase were grown in 2.8-1 Fembach flasks in LB broth containing no salt and 50 μg/ml kanamycin at 37° C. After the culture reached an A590 of 1.2, expression of DNA polymerase was induced with 0.3 M NaCl for 3 hr. Cells were harvested by centrifugation and stored at −70° C. E. coli cells (BL21AI) bearing the plasmid pET14B with the gene for Tok13B, Tok7B, or RT69B DNA polymerase were grown in 2.8-1 Fembach flasks in LB broth containing 50 μg/ml ampicillin at 37° C. After the culture reached an A590 of 1.0, expression of DNA polymerase was induced by the addition of 0.2% arabinose for 3 hr. Cells were harvested by centrifugation and stored at −70° C.
(§2) Steady-state kinetic measurements.

Substrate in data set [2]: Nc1nc2c(ncn2[C@H]2C[C@H](O)[C@@H](COP(=O)(O)OP(=O)(O)OP(=O)(O)O)O2)c(=O)[nH]1
It is filed as biochemical, Caldibacillus cellulovorans CompA.2. The note with it: other: Table 34, DNA template, 1.5 mM MgCl2, 55 °C per footnote *. The method, then: as §1, §2
(§3) The catalytic rate constant kcat and the Michaelis constant KM were determined for both the DNA-dependent and RNA-dependent polymerase activities for the polypeptides of the invention and these parameters were compared to those of Tne DNA polymerase enzyme and […]™ II reverse transcriptase. […]

Substrate in data set [3]: Cc1cn([C@H]2C[C@H](O)[C@@H](COP(=O)(O)OP(=O)(O)OP(=O)(O)O)O2)c(=O)[nH]c1=O
It counts as biochemical, Caldibacillus cellulovorans CompA.2. The conditions noted are these: 55 °C, mean ± SD. The method, then: as §1, §2, §3

Substrate in data set [4]: Cc1cn([C@H]2C[C@H](O)[C@@H](COP(=O)(O)OP(=O)(O)OP(=O)(O)O)O2)c(=O)[nH]c1=O
It counts as biochemical, Bacillus caldolyticus EA1.3. The note with it: 55 °C, mean ± SD. The method, then: as §1, §2

Setting [5] is: other: Table 40, (dA)270•(dT)40, dTTP.
The mark [6] stands for this setting: other: Table 40, (rA)250•(dT)30, dTTP.

Marks after values point to notes of the source that are not given here.

B1: Dictyoglomus thermophilum strain Rt46B.1 (Dth) DNA polymerase, SEQ ID NO:22 (Dictyoglomus thermophilum) (protein)
chain: MKYLLPTAAAGLLLLAAQPAMAMDIGINSDPKSLWDLFQENTEKESKRKILIIDGSSLIYRVYYALPPLKTKNGELTNALYGFIRILLKAVEDFNPDLVGVAFDRPEPTFRHVIYKEYKAKRPPMKDDLKAQIPWIREFLRLNDIPLLEEPGYEADDIIATIVNKYKDDLKYILSGDLDLLQLVSDKTFLIHPQKGITEFTIYDPKAVKDRFGVEPYKIPLYKVLVGDESDNIPGVNGIGPKKASKILEKISSVDEFKSKIKVLDSDLRELIEKNWNIIERNLELVTLKNIDKDLILKPFEIKRDEKVIDFLKRYELKSILQKLFPDLQEEENIEIKDVEEINFNEVEKEGYFAFKCLGDRAFEGISLSFKEGEGYFISPFDFNNEIRKKIENIISSENVKKIGSYIQRDLHFLNCKIKGDVFDVSLASYLLNPERQNHSLDILIGEYLNKTSFIPQKYAGYLFPLKSILEERIKNEGLEFVLYNIEIPLIPVLYSMEKWGIKVDKEYLKQLSDEFCERIKKLEEEIYELAGTRFNLNSPKQLSEVLFERLKLPSGKKGKTGYSTSSSVLQNLINAHPIVRKILQYRELYKLKSTYVDAIPNLVNPQTGRVHTKFNPTGTATGRISSSEPNLQNIPIKSEEGRKIRRAFVSEDGYFLVSLDYSQIELRIMAHLSQEPKLISAFQKGEDIHRRTASEIFGVPEEEVDDLLRSRAKAVNFGIIYGISSFGLSETVSITPEEAEKFIDSYFKHYPRVKLFIDKTIHEAREKLYVKTLFGRKRYIPEIKSINKQVRNAYERIAINAPIQGTAADIIKLAMIEIYKEIENKNLKSRILLQIHDELILEVPEEEMEFTPLMAKEKMEKVVELSVPLVVEISVGKNLAELK
One may read the kcat as the maximal rate divided by the concentration of active sites. B1: the turnover number (kcat) was 39 ± 15 s⁻¹ in data set [1] (other: Table 40, (dA)270•(dT)40, dTTP, mean ± SD) and below 1 s⁻¹ in data set [1] (other: Table 40, (rA)250•(dT)40, dTTP).

B2: Caldibacillus cellulovorans CompA.2 (CA2) DNA polymerase, SEQ ID NO:16 ([Caldibacillus] cellulovorans) (protein)
chain: MKYLLPTAAAGLLLLAAQPAMAMGKLILVDGNSVANRAFYAVRLLSTRGGLHTNAVYGFANMLLKLIEEERPTHFLVAFDAGKATFRHREYEAYKAGRLQTPPELSEQFPYIRELVRAFGVASGELEEYEADDMIGTLAKRAEAEGVDTLVVTGDRDLLQLVSDRVTVALTRKGITETERYDPARIREEYGFDPDRIRDLKGLMGDASDNLPGVPGVGEKTALKLLRQYGSLESVLEHASEIAGKLGENLRAHADAARLSKRLATIDCAVPLQSGWDWLRLGEPDRAALASLLRQLEFKSLLKRLGLDGTSADADVDGVRSSARPADEKRPRAVAVAEEGVDVRCPDRPEEVEEALSRLEAAQSVVVEVTGDNPHDGEVRGVAWWDGHTAYFIPFERLVQSDMRPLADWLADARRPKRTHDSHRAEVALFWHGLAFRGTSFCTHIAAYLLDPTESRHTLADLSRRYGLPPVPEAEDVYGKGAKFKVPDRDTLARYVGRKAALVARLVPLLEADLAACGMRSLFYDLELPLSSELAVMETVGVRVDAAALAAYGEELREAAAKVEREIYELAGTTFNIGSTKQLGEILFDKLGLPVVKKTKTGYSTDADVLEELAPYHPIVEKILHYRQLTKLQSTYIEGLLKEIRPQTGKIHTYYQQTIAATGRLSSQFPNLQNIPIRLEEGRKIRKAFVPSEPGWLMLAADYSQIELRVLAHVSGDERLKEAFRTGMDIHTKTAMDVFGVSEDRVDARMRRQAKAVNFGIIYGISDFGLAQNLNISRKEAAEFIRQYFAVFSGVKAYRERIVEQARRDGYVTTLLGRRRYLPDINASNYNLRSFAERTAMNTPIQGTAADIIKTAMVRLTRRMRDVGLKSRMLLQVHDELVFEVPPDELDAMRELVTDVMESAVPLDVPLKVDVSWGADWYAAK
Turning to B2, the kcat was 200* s−1 in data set [2], 82 ± 9 s⁻¹ in data set [3] (setting [5]) and 48 ± 9 s⁻¹ in data set [3] (setting [6]).

B3: Bacillus caldolyticus EA1.3 (B.EA1) DNA polymerase, SEQ ID NO:20 ([Bacillus] caldolyticus) (protein)
chain: MKYLLPTAAAGLLLLAAQPAMAMGLKKKLVLIDGSSVAYRAFFALPLLHNDKGIHTNAVYGFTMMLNKILAEEEPTHMLVAFDAGKTTFRHEAFQEYKGGRQQTPPELSEQFPLLRELLRAYRIPAYELENYEADDIIGTLAARAEQEGFEVKVISGDRDLTQLASPHVTVDITKKGITDIEPYTPEAVREKYGLTPEQIVDLKGLMGDKSDNIPGVPGIGEKTAVKLLKQFGTVENVLASIDEIKGEKLKETLRQHREMALLSKKLAAIRRDAPVELSLDDIVYQGEDREKVVALFKELGFQSFLEKMESPSSEEEKPLAKMAFTLADRVTEEMLADKAALVVEVVEENYHDAPIVGIAVVNEHGRFFLRPETALADPQFVAWLGDETKKKSMFDSKRAAVALKWKGIELCGVSFDLLLAAYLLDPAQGVDDVAAAAKMKQYEAVRSDEAVYGKGAKRAVPDEPVLAEHLVRKAAAIWALERPFLDELRRNEQDRLLVELEQPLSSILAEMEFAGVKVDTKRLEQMGEELAEQLRTVEQRIYELAGQEFNINSPKQLGVILFEKLQLPVLKKTKTGYSTSADVLEKLAPYHEIVENILHYRQLGKLQSTYIEGLLKVVRPDTKKVHTIFNQALTQTGRLSSTEPNLQNIPIRLEEGRKIRQAFVPSESDWLIFAADYSQIELRVLAHIAEDDNLMEAFRRDLDIHTKTAMDIFQVSEDEVTPNMRRQAKAVNFGIVYGISDYGLAQNLNISRKEAAEFIERYFESFPGVKRYMENIVQEAKQKGYVTTLLHRRRYLPDITSRNFNVRSFAERMAMNTPIQGSAADIIKKAMIDLNARLKEERLQARLLLQVHDELILEAPKEEMERLCRLVPEVMEQAVTLRVPLKVDYHYGSTWYDAK
In the case of B3, the figures for the catalytic constant (kcat) in data set [4] (setting [5]) and in data set [4] (setting [6]) were 73 ± 16 s⁻¹ and 43 ± 7 s⁻¹, respectively.
